This test concerns the target human NPC1L1 (Niemann-Pick C1-like 1), wild type, C-terminal Flag tag (human) (UniProt Q9UHC9). As to the kind of experiment: cryo-EM structure.

One may read the stoichiometry N as a count of units in the complex or per binding partner. As for “human NPC1L1 (Niemann-Pick C1-like 1), wild type, C-terminal Flag tag (from UniProt Q9UHC9-2 22-1332) (natural protein)”, the stoichiometry N amounted to 2.

Values taken from publication PMC8373123.
